Laboratory results as given in article PMC9482650, “Quantitative fragmentomics allow affinity mapping of interactomes” (Nature Communications, 2022).
Each block holds one binder with its values, some of them ahead of it.

Tests used:
Assay in all cases: holdup assay
Design in all cases: key: below the threshold = too weak to quantify, mostly under pKd 3.1 to 4
FRMPD2_2, Q68DX3 = biological target: FRMPD2_2, Q68DX3
GORASP1, Q9BQQ3 = biological target: GORASP1, Q9BQQ3
MAGI2_5, Q86UL8 = biological target: MAGI2_5, Q86UL8
LDB3, O75112 = biological target: LDB3, O75112
CARD11, Q9BXL7 = biological target: T1, CARD11, Q9BXL7
T1 sequence (Q9BXL7 662-765, limits assumed, looked up): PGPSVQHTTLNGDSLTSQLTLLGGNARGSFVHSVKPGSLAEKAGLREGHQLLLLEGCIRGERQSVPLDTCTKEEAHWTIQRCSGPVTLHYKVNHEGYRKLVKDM

LIN7C, Q9NUP9 = biological target: T2, LIN7C, Q9NUP9
T2 sequence (Q9NUP9 88-185, limits assumed, looked up): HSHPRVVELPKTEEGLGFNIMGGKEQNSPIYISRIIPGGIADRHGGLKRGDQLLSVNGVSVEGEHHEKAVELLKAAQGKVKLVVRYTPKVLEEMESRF

GRIP2_7, Q9C0E4 = biological target: GRIP2_7, Q9C0E4
GRID2IP_2, A4D2P6 = biological target: GRID2IP_2, A4D2P6
TIAM2, Q8IVF5 = biological target: T3, TIAM2, Q8IVF5
T3 sequence (Q8IVF5 885-986, limits assumed, looked up): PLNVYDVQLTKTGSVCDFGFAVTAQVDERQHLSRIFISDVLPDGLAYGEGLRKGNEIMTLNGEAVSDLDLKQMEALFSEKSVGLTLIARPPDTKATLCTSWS

DLG1_3, Q12959 = biological target: DLG1_3, Q12959
MAST1, Q9Y2H9 = biological target: MAST1, Q9Y2H9
HTRA3, P83110 = biological target: T4, HTRA3, P83110
T4 sequence (P83110 354-453, limits assumed, looked up): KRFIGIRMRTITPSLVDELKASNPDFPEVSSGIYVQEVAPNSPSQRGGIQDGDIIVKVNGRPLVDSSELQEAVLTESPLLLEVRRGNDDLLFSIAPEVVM

MPDZ_12, O75970 = biological target: T5, MPDZ_12, O75970
T5 sequence (O75970 1857-1958, limits assumed, looked up): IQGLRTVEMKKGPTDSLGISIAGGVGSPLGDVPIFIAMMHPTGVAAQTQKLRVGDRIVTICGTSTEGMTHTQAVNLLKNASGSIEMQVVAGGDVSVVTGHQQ

GRID2IP_1, A4D2P6 = biological target: GRID2IP_1, A4D2P6
HTRA2, O43464 = biological target: HTRA2, O43464
APBA3_1, O96018 = biological target: T6, APBA3_1, O96018
T6 sequence (O96018 389-490, limits assumed, looked up): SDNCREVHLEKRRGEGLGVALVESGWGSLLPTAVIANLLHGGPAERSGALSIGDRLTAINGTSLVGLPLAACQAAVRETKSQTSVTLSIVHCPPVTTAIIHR

NHERF2_2, Q15599 = biological target: NHERF2_2, Q15599
GORASP2, Q9H8Y8 = biological target: GORASP2, Q9H8Y8
GRIP1_7, Q9Y3R0 = biological target: T7, GRIP1_7, Q9Y3R0
T7 sequence (Q9Y3R0 999-1096, limits assumed, looked up): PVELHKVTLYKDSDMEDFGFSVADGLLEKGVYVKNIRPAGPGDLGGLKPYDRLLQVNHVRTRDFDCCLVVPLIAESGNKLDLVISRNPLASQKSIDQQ

SCRIB_1, Q14160 = biological target: SCRIB_1, Q14160
DLG4_3, P78352 = biological target: DLG4_3, P78352
AHNAK1, Q09666 = biological target: AHNAK1, Q09666
SYNJ2BP, P57105 = biological target: T8, SYNJ2BP, P57105
T8 sequence (P57105 8-110, limits assumed, looked up): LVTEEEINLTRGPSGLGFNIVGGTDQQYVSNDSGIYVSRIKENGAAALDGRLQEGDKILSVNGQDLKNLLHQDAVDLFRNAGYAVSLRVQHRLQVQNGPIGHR

DLG2_2, Q15700 = biological target: DLG2_2, Q15700
SNTA1, Q13424 = biological target: T9, SNTA1, Q13424
T9 sequence (Q13424 82-180, limits assumed, looked up): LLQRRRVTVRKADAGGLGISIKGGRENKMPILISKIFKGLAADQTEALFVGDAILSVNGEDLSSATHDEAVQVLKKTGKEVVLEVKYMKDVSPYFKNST

SNTG2, Q9NY99 = biological target: T10, SNTG2, Q9NY99
T10 sequence (Q9NY99 68-166, limits assumed, looked up): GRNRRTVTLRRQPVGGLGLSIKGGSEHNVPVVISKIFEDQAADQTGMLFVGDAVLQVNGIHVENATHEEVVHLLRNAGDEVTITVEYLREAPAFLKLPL

GRIP2_5, Q9C0E4 = biological target: GRIP2_5, Q9C0E4
MAGI2_2, Q86UL8 = biological target: MAGI2_2, Q86UL8
[1] = plain residues with an end cap or a label only (N-terminal biotin on a linker: ttds)
[2] = plain residues with an end cap or a label only (N-terminal biotin on a linker: ado-ado)

Chain of SCRIB_1, Q14160 (Q14160 718-814): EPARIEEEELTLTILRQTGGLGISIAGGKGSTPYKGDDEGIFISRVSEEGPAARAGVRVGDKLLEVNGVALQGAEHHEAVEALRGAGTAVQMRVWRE
Chain of GRIP2_5, Q9C0E4 (Q9C0E4 544-642): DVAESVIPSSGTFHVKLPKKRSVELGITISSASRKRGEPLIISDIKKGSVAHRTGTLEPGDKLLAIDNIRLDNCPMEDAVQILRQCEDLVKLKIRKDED
Chain of AHNAK1, Q09666 (Q09666 4-100): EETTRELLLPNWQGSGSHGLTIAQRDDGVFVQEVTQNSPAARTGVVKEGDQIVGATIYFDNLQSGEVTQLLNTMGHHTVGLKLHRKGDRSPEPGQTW
Chain of DLG2_2, Q15700 (Q15700 189-283): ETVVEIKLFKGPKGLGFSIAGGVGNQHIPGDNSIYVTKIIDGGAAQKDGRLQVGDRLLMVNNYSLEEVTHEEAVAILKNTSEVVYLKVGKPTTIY
Chain of GORASP1, Q9BQQ3 (Q9BQQ3 1-208): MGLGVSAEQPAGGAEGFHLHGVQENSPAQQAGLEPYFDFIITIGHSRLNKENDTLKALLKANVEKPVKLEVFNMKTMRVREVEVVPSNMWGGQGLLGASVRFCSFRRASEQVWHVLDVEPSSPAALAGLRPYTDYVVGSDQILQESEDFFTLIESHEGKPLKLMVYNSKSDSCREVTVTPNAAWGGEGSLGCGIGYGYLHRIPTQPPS
Chain of GRIP2_7, Q9C0E4 (Q9C0E4 934-1023): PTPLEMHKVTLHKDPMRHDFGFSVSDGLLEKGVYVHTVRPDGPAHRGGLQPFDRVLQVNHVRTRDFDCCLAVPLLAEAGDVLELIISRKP
Chain of MAST1, Q9Y2H9 (Q9Y2H9 962-1065): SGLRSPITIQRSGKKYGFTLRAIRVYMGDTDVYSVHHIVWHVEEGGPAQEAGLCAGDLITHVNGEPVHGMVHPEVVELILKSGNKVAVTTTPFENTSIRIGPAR
Chain of HTRA2, O43464 (O43464 355-458): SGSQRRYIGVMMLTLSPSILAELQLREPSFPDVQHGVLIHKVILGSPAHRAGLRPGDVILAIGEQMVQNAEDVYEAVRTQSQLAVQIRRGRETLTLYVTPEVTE
Chain of MAGI2_2, Q86UL8 (Q86UL8 410-522): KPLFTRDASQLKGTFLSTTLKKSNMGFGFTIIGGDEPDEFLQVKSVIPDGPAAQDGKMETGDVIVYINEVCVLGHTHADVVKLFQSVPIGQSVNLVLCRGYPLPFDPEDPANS
Chain of DLG4_3, P78352 (P78352 306-403): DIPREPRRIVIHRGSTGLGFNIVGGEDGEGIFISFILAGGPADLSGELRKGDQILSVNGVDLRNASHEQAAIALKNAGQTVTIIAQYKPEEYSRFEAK
Chain of GRID2IP_2, A4D2P6 (A4D2P6 272-370): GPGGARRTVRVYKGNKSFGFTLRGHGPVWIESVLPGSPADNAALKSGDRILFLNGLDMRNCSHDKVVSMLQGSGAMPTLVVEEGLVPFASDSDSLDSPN
Chain of LDB3, O75112 (O75112 1-94): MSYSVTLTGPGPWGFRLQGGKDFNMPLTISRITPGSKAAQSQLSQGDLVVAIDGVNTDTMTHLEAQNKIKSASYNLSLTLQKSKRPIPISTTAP
Chain of GRID2IP_1, A4D2P6 (A4D2P6 1-87): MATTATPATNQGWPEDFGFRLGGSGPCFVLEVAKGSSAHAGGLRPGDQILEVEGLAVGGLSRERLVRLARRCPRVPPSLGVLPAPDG
Chain of MAGI2_5, Q86UL8 (Q86UL8 915-1017): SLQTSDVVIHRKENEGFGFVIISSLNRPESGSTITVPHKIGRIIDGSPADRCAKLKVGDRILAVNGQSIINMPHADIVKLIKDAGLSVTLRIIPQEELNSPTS
Chain of NHERF2_2, Q15599 (Q15599 142-238): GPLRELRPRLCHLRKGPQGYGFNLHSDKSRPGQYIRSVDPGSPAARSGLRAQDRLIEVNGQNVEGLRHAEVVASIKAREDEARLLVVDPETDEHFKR
Chain of DLG1_3, Q12959 (Q12959 457-571): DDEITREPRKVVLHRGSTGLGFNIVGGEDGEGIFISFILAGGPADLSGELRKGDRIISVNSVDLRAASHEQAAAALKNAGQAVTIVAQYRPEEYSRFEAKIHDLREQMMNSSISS
Chain of FRMPD2_2, Q68DX3 (Q68DX3 944-1038): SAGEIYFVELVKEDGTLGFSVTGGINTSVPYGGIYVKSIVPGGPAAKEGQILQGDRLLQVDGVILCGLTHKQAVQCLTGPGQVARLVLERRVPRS

pKd (FRMPD2_2, Q68DX3; [1]): below the threshold
pKd (GORASP1, Q9BQQ3; [1]): below the threshold
pKd (MAGI2_5, Q86UL8; [1]): 3.7
pKd (LDB3, O75112; [1]): below the threshold
pKd (CARD11, Q9BXL7; [1]): below the threshold
pKd (LIN7C, Q9NUP9; [1]): below the threshold
pKd (GRIP2_7, Q9C0E4; [1]): below the threshold
pKd (GRID2IP_2, A4D2P6; [1]): below the threshold
pKd (TIAM2, Q8IVF5; [1]): below the threshold
pKd (DLG1_3, Q12959; [1]): 3.77
pKd (MAST1, Q9Y2H9; [1]): below the threshold
pKd (HTRA3, P83110; [1]): below the threshold
pKd (MPDZ_12, O75970; [1]): below the threshold
pKd (GRID2IP_1, A4D2P6; [1]): below the threshold
pKd (HTRA2, O43464; [1]): below the threshold
pKd (APBA3_1, O96018; [1]): below the threshold
pKd (NHERF2_2, Q15599; [1]): below the threshold
pKd (GORASP2, Q9H8Y8; [1]): below the threshold
pKd (GRIP1_7, Q9Y3R0; [1]): below the threshold
pKd (SCRIB_1, Q14160; [1]): 4.75
pKd (DLG4_3, P78352; [1]): below the threshold
pKd (AHNAK1, Q09666; [1]): below the threshold
pKd (SYNJ2BP, P57105; [1]): 5.08
pKd (DLG2_2, Q15700; [1]): 4.33
pKd (SNTA1, Q13424; [1]): 4.33
pKd (SNTG2, Q9NY99; [1]): 4.37
pKd (GRIP2_5, Q9C0E4; [1]): below the threshold
pKd (MAGI2_2, Q86UL8; [1]): below the threshold
B1: TANC2, Q9HCD6 (peptide)
chain: PKRPFVESNV

pKd (FRMPD2_2, Q68DX3; [2]): below the threshold
pKd (GORASP1, Q9BQQ3; [2]): below the threshold
pKd (MAGI2_5, Q86UL8; [2]): 4.08
pKd (LDB3, O75112; [2]): below the threshold
pKd (CARD11, Q9BXL7; [2]): below the threshold
pKd (LIN7C, Q9NUP9; [2]): 3.63
pKd (GRIP2_7, Q9C0E4; [2]): below the threshold
pKd (GRID2IP_2, A4D2P6; [2]): 3.86
pKd (TIAM2, Q8IVF5; [2]): below the threshold
pKd (DLG1_3, Q12959; [2]): below the threshold
pKd (MAST1, Q9Y2H9; [2]): 4.66
pKd (HTRA3, P83110; [2]): below the threshold
pKd (MPDZ_12, O75970; [2]): below the threshold
pKd (GRID2IP_1, A4D2P6; [2]): below the threshold
pKd (HTRA2, O43464; [2]): below the threshold
pKd (APBA3_1, O96018; [2]): below the threshold
pKd (NHERF2_2, Q15599; [2]): 4.67
pKd (GORASP2, Q9H8Y8; [2]): below the threshold
pKd (GRIP1_7, Q9Y3R0; [2]): below the threshold
pKd (SCRIB_1, Q14160; [2]): below the threshold
pKd (DLG4_3, P78352; [2]): below the threshold
pKd (AHNAK1, Q09666; [2]): below the threshold
pKd (SYNJ2BP, P57105; [2]): 3.95
pKd (DLG2_2, Q15700; [2]): below the threshold
pKd (SNTA1, Q13424; [2]): 5.26
pKd (SNTG2, Q9NY99; [2]): 4.31
pKd (GRIP2_5, Q9C0E4; [2]): below the threshold
pKd (MAGI2_2, Q86UL8; [2]): below the threshold
B2: KIDINS220, Q9ULH0 (peptide)
chain: GFGEERESIL
